Assay [1] has as its target T1, Wag31 (recombinant, from Wag31-pet28a) (Mycobacterium tuberculosis, UniProt P9WMU1 1-260).
T1 sequence: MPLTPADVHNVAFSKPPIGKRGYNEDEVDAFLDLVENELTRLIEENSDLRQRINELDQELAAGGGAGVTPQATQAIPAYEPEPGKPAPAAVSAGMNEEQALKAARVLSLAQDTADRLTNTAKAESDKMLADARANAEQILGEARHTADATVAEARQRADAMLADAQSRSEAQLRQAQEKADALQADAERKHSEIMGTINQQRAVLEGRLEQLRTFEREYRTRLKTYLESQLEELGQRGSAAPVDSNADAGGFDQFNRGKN
Kind of assay: co-IP. The note with it: both partners purified.

Assay [2] addresses T1, Wag31 (recombinant, from Wag31-pet28a). The assay is described as follows: pull-down. The note with it: both partners purified.

B1: 6X His-tagged Rv3852 protein (natural protein)
chain: MPDPQDRPDSEPSDASTPPAKKLPAKKAAKKAPARKTPAKKAPAKKTPAKGAKSAPPKPAEAPVSLQQRIETNGQLAAAAKDAAAQAKSTVEGANDALARNASVPAPSHSPVPLIVAVTLSLLALLLIRQLRRR
notes: also called hexa-histidine tagged Rv3852
Take B1: the binding result in assay [1] is recorded as “binds”.

B2: Rv3852-MBP (natural protein)
chain: MPDPQDRPDSEPSDASTPPAKKLPAKKAAKKAPARKTPAKKAPAKKTPAKGAKSAPPKPAEAPVSLQQRIETNGQLAAAAKDAAAQAKSTVEGANDALARNASVPAPSHSPVPLIVAVTLSLLALLLIRQLRRR
Turning to B2, the binding result in assay [2] is recorded as “binds”.

For the origin of these results see publication PMC8233713, “Direct Interaction of Polar Scaffolding Protein Wag31 with Nucleoid-Associated Protein Rv3852 Regulates Its Polar Localization” (Cells, 2021).
